In publication PMC4963197, “Phosphorylation acts positively and negatively to regulate MRTF-A subcellular localisation and activity” (eLife, 2016) one finds other: actins (apparent stoichiometry of G-actin binding) data, which are given here for one substance.

The test concerns the target G-actin (UniProt P68135). Description: size exclusion chromatography. (In general: Size exclusion chromatography separates by hydrodynamic size, large species first.)

As to MRTF-A(67–199) L74A; L78A, the other: actins (apparent stoichiometry of G-actin binding) came out at 2.2.
